Substitutions are numbered along the chain they refer to. Numbers in names are those of the source.
B1: [S71C, N121Q, L166F, S167G, M168L, 173aA, G174V, Y179F, A180E, des181]Ala-FGF21 (ligand)
chain: AHPIPDSSPLLQFGGQVRQRYLYTDDAQQTEAHLEIREDGTVGGAADQSPESLLQLKALKPGVIQILGVKTCRFLCQRPDGALYGSLHFDPEACSFRELLLEDGYNVYQSEAHGLPLHLPGQKSPHRDPAPRGPARFLPLPGLPPALPEPPGILAPQPPDVGSSDPFGLVGPSQAVRSPSFE
B2: Met-FGF21 (Compound A) (ligand)
chain: MHPIPDSSPLLQFGGQVRQRYLYTDDAQQTEAHLEIREDGTVGGAADQSPESLLQLKALKPGVIQILGVKTSRFLCQRPDGALYGSLHFDPEACSFRELLLEDGYNVYQSEAHGLPLHLPGNKSPHRDPAPRGPARFLPLPGLPPALPEPPGILAPQPPDVGSSDPLSMVGPSQGRSPSYAS
B3: N-alpha-bis-(4-{[2-(2-{2-[2-(2-{2-[(S)-4-carboxy-4-(17-carboxyheptadecanoylamino)butyrylamino]ethoxy}ethoxy)acetylamino]ethoxy}ethoxy)acetylamino]methyl}benzyl) … (ligand)
chain: B2 chain with M1G, K57R, K60R, K70R, K123R
modifications: alpha amino group of the N-terminal Gly carries two 4-{[2-(2-{2-[2-(2-{2-[(S)-4-carboxy-4-(17-carboxyheptadecanoylamino)butyrylamino]ethoxy}ethoxy)acetylamino]ethoxy}ethoxy)acetylamino]methyl}benzyl groups
B4: [N121Q] Ala-FGF21 (ligand)
chain: B2 chain with M1A, N122Q
B5: [K56R, K59R, K69R, K122R]Gly-FGF21 (ligand)
chain: B2 chain with M1G, K57R, K60R, K70R, K123R
B6: [N121Q]Met-FGF21 (ligand)
chain: B2 chain with N122Q
B7: [N121Q, L166F, S167G, M168L, P171L, S172E, Q173A, G174V, Y179F, A180E, des181]Ala-FGF21 (ligand)
chain: AHPIPDSSPLLQFGGQVRQRYLYTDDAQQTEAHLEIREDGTVGGAADQSPESLLQLKALKPGVIQILGVKTSRFLCQRPDGALYGSLHFDPEACSFRELLLEDGYNVYQSEAHGLPLHLPGQKSPHRDPAPRGPARFLPLPGLPPALPEPPGILAPQPPDVGSSDPFGLVGLEAVRSPSFE
B8: [S71C, N121Q, L166F, S167G, M168L, P171L, S172E, Q173A, G174V, Y179F, A180E, des181]Ala-FGF21 (ligand)
chain: B7 chain with S72C
B9: [S71C, N121Q, L166F, S167G, M168L, des170, 173aA, G174V, Y179F, A180E, des181]Ala-FGF21 (ligand)
chain: B7 chain with S72C, G171P, L172S, E173Q
B10: N-alpha(4-{[2-(2-{2-[2-(2-{2-[(S)-4-Carboxy-4-(17-carboxyheptadecanoylamino)butyrylamino]-ethoxy}ethoxy)acetylamino]ethoxy}ethoxy)acetylamino]methyl}benzyl) … (ligand)
chain: B7 chain with S72C
modifications: alpha amino group of the N-terminal Ala carries one 4-{[2-(2-{2-[2-(2-{2-[(S)-4-carboxy-4-(17-carboxyheptadecanoylamino)butyrylamino]ethoxy}ethoxy)acetylamino]ethoxy}ethoxy)acetylamino]methyl}benzyl group

The molecules below were run against T1, human beta-Klotho (human, UniProt Q86Z14 1-1044) (assay: cell-based or functional assay).
T1 sequence (looked up): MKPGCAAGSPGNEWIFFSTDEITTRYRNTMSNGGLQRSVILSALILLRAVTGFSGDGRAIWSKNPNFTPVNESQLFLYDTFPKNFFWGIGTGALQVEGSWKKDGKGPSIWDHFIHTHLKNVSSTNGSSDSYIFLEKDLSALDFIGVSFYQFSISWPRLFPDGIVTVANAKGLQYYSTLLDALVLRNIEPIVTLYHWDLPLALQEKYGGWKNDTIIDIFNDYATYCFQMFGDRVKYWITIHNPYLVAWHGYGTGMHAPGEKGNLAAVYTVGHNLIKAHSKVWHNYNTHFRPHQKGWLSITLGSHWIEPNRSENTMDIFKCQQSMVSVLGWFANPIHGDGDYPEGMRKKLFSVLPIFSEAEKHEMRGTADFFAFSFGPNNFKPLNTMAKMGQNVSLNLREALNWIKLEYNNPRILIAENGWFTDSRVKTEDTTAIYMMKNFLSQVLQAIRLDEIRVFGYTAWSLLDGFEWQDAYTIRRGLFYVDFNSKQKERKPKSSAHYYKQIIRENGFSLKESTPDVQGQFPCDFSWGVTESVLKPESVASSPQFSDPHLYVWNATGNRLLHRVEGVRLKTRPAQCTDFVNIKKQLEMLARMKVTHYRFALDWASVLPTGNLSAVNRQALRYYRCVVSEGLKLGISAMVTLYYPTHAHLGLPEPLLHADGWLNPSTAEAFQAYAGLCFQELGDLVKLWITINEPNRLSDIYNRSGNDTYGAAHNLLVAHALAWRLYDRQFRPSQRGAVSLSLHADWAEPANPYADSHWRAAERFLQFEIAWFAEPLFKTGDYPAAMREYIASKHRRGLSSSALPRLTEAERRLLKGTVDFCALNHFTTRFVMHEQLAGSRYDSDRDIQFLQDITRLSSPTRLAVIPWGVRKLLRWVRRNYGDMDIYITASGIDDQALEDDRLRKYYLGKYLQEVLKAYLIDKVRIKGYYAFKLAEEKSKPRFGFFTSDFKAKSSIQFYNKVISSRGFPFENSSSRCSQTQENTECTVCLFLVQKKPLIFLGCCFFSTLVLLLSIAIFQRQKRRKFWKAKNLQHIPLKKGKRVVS
“[Q28R, K56R, K59R, K69R, D102T, D121Q, K122R, L166F, S167G, M168L, G170T] Ala-FGF21 (from UniProt Q9NSA1 28-209) (ligand)” gave a pERK-HEK293-Beta-klotho without HSA [EC50 (nM)] Mean Value of 0.8 nM. “N-alpha-(4-{[2-(2-{2-[2-(2-{2-[(S)-4-carboxy-4-(17-carboxyheptadecanoylamino)butyrylamino]ethoxy}ethoxy)acetylamino]ethoxy}ethoxy)acetylamino]methyl}benzyl) [K56R, K59R, K69R, D102T, D121Q, K122R, L166F, S167G, M168L, G170T] Ala-FGF21 (Compound III) (from UniProt Q9NSA1 28-209) (ligand)” was tested, and the pERK-HEK293-Beta-klotho without HSA [EC50 (nM)] Mean Value was 1 nM. With B1 the “pERK-HEK293-Beta-klotho without HSA [EC50 (nM)] Mean Value” (“pERK-HEK293-Beta-klotho without HSA” below) was 0.4 nM. For B2, the “pERK-HEK293-Beta-klotho without HSA” value was 1.6 nM. For B3, the “pERK-HEK293-Beta-klotho without HSA” value was 4.6 nM. For B4, the “pERK-HEK293-Beta-klotho without HSA” value was 2.3 nM. With B5 the “pERK-HEK293-Beta-klotho without HSA” value was 8.3 nM. With B6 the “pERK-HEK293-Beta-klotho without HSA” value was 1 nM. B7 was tested, and the “pERK-HEK293-Beta-klotho without HSA” value was 0.7 nM. For B8, the “pERK-HEK293-Beta-klotho without HSA” value was 0.6 nM. In the case of B9, the “pERK-HEK293-Beta-klotho without HSA” value is reported as 1.8 nM. For B10, the “pERK-HEK293-Beta-klotho without HSA” value was 0.4 nM.
